The test concerns the target nrl_human NRL (UniProt P54845).

nrl_human NRL, sequence (P54845 whole entry): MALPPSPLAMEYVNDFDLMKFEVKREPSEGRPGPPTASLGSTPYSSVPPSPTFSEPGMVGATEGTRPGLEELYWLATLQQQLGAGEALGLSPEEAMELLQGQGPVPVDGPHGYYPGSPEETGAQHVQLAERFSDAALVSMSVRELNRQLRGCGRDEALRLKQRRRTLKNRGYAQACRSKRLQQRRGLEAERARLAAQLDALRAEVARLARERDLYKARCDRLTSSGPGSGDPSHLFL
Cone-rod homeobox protein (Bos taurus (Bovine)), Q9XSK0 R41W, sequence (Q9XSK0 whole entry R41W): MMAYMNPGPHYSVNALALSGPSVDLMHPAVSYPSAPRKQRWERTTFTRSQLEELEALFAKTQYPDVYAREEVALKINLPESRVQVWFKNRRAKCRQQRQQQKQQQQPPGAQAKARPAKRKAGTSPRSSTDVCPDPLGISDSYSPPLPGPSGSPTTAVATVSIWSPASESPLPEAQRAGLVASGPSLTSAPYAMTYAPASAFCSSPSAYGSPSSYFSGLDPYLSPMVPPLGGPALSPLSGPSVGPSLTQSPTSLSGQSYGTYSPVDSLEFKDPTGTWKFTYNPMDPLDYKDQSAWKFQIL
Cone-rod homeobox protein (Bos taurus (Bovine)), Q9XSK0 R90W, sequence (Q9XSK0 whole entry R90W): as the sequence (Q9XSK0 whole entry R41W) above, with W41R, R90W counted along it

As for “Cone-rod homeobox protein (Bos taurus (Bovine)), Q9XSK0 R90W”, the “effect of a mutation on the interaction” value is listed as “decreasing interaction”.
Turning to “Cone-rod homeobox protein (Bos taurus (Bovine)), Q9XSK0 R41W”, the “effect of a mutation on the interaction” value is listed as “decreasing interaction”.
